One block for each binder: values may come before it.
Experiments:
[1] = target: T1, Recombinant human laminin-α4 (R&D systems) (human, UniProt Q16363-2 826-1816); assay: SPR (Biacore T200)
T1 construct: also called laminin 4A chain; laminin A4 (α4) chain
T1 sequence (looked up): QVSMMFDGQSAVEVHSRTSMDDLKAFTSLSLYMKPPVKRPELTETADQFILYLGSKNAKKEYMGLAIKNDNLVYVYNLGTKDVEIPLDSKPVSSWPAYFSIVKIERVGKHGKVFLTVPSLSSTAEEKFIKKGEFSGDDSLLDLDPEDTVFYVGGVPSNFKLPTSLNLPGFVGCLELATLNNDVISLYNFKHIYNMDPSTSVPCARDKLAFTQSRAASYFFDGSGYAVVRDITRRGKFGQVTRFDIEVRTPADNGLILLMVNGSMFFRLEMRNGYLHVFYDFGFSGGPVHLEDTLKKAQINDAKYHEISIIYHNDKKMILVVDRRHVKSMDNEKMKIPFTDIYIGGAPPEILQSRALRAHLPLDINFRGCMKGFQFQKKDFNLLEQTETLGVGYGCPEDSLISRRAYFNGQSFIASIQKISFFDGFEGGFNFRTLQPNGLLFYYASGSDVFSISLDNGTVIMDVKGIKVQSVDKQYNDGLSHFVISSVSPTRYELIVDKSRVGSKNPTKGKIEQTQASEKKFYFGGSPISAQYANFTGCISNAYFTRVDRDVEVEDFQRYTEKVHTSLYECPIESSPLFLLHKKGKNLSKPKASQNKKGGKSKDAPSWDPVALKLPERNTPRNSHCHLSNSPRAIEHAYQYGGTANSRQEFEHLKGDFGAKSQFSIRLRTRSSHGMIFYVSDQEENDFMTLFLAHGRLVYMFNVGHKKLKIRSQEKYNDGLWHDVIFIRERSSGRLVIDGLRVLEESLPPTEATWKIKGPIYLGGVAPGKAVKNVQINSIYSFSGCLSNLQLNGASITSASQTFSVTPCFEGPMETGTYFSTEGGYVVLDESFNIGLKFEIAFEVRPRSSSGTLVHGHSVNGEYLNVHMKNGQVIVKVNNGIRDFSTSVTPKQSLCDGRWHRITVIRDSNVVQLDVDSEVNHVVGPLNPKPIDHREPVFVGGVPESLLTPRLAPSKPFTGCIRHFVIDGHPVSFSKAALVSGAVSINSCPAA

[2] = target: T2, Recombinant human laminin 511 (Biolamina) (human, UniProt O15230 36-3695; P07942 22-1786; P11047 34-1609); assay: SPR (Biacore T200)
T2 construct: Trimer α5β1γ1, bought; negative control

[3] = target: T3, Murine MCAM domain 1 (Ig1) with human IgG Fc tag (mouse, UniProt Q8R2Y2 24-131, limits assumed); assay: ForteBio Octet Red, domains on anti-human IgG Fc biosensors
T3 construct: domain: domain 1 (Ig1); also called MCAM Fc domain 1; not shown: human IgG Fc tag
T3 sequence (looked up): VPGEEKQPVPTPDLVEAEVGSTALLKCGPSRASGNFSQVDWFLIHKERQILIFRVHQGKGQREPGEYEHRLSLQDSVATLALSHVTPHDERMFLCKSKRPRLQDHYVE
Excerpt: (§1) The following protocol was used: ForteBio Domain Mapping Protocol. ForteBio anti-human IgG Fc biosensors were used to immobilize various mouse MCAMhFc domains including full length mouse MCAMhFc protein on to biosensor surface. These sensors were dipped into either clone 15 or 17 MCAM specific antibody for detection of binding to these domains or full length protein. After loading these samples into a black 96 well plate, the Octet Red was programmed as follows: 60 seconds for baseline #1; 180 seconds for loading various domains; 60 seconds for baseline #2; 180 seconds for association of antibody to domain; and 240 seconds for dissociation of antibody from domain.

[4] = target: T4, Murine MCAM domain 1 and 2 (Ig1-2A) with human IgG Fc tag (mouse, UniProt Q8R2Y2 24-244, limits assumed); assay: as above
T4 construct: domain: domain 1 and 2 (Ig1-2A); also called MCAM Fc domains 1 and 2; not shown: human IgG Fc tag
T4 sequence (looked up): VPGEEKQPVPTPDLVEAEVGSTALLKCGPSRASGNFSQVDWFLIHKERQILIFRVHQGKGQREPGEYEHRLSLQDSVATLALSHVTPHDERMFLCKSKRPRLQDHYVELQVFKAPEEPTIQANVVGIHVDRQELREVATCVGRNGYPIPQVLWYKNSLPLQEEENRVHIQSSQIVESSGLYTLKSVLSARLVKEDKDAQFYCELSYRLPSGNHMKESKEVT
Excerpt: as §1

[5] = target: T5, mouse MCAM (full length, on transfected CHO cells) (mouse, UniProt Q8R2Y2 24-648); assay: flow cytometry on MCAM transfected cells mixed with CFSE-labelled untransfected cells
T5 construct: whole, on cells; also called murine MCAM; mouse MCAM transfected CHO cells
T5 sequence (looked up): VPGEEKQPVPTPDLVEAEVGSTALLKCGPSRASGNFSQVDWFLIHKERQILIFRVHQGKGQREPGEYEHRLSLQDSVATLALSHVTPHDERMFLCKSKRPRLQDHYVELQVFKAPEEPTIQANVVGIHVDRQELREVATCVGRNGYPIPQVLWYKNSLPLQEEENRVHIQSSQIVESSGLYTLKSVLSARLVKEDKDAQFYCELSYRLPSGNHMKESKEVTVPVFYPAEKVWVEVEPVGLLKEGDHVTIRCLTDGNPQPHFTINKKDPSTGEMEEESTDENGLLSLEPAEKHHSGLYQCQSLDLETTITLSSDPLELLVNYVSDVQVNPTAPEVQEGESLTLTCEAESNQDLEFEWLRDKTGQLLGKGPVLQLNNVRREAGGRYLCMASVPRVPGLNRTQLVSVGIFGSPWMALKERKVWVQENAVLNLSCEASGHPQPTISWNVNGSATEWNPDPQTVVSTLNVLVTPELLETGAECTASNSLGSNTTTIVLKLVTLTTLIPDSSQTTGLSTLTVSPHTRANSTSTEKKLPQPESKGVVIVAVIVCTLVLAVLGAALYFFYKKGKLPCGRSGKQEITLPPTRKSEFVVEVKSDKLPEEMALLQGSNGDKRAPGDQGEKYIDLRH
Protocol: MCAM-Fc was generated by fusing the extracellular domain of murine MCAM to human IgG and produced in CHO cells using standard techniques. Lou/M rats were immunized with 100 μg of MCAM-Fc protein in CFA (1:1 volume). Rats were boosted two times at two week intervals with MCAM-Fc protein in incomplete Freund's adjuvant (IFA) (1:1 volume). Hybridomas were generated from immunized rats using standard protocols and clones were selected by Clonepix. CHO cells were transfected with the full length murine MCAM gene and selected for stable expression using neomycin and standard techniques. Parental CHO cells (MCAM negative) were fluorescently labeled with carboxyfluorescein succinimidyl ester (CFSE) using standard techniques and mixed at a 1:1 ratio with unlabeled MCAM transfected CHO cells. Hybridoma supernatants were incubated with this mixture of cells for 30 minutes and binding of potential MCAM specific antibodies was detected with a fluorescently labeled anti-rat secondary antibody (Jackson Immuno) by flow cytometry.
(§2) Monoclonal antibodies against mouse MCAM were generated as described in Materials and Methods above. The specific binding between the monoclonal antibody and MCAM was confirmed by assessing the monoclonal antibody's ability to bind to cells transfected with either mouse or human MCAM. For this, untransfected cells were labeled with carboxyfluorescein succinimidyl ester (CFSE) and mixed with unlabeled MCAM transfected cells. Untransfected cells (in blue) could therefore be differentiated.

[6] = target: T6, human MCAM (on transfected cells) (human, UniProt P43121 24-646); assay: flow cytometry on human MCAM transfected cells mixed with CFSE-labelled untransfected cells
T6 construct: Cells transfected with human MCAM; also called CD146; MUC18
T6 chain: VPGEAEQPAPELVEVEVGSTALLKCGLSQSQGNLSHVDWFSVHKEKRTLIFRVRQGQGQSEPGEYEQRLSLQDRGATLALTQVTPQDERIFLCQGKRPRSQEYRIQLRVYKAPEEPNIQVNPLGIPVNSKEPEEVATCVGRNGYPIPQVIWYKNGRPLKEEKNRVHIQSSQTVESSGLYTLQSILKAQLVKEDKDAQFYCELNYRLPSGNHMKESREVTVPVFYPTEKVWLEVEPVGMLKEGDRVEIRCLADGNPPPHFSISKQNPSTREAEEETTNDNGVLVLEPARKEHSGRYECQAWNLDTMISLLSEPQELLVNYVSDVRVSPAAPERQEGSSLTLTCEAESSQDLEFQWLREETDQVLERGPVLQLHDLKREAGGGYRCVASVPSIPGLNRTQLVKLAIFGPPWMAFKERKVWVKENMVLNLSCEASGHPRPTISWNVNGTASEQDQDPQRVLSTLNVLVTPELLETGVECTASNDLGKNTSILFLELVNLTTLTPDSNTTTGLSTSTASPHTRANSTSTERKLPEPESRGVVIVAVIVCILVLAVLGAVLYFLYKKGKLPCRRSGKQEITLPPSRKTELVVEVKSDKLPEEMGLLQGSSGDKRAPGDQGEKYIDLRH
Excerpt: as §2

[7] = target: T7, Ig2 domain (mouse, UniProt Q8R2Y2); assay: ForteBio Octet Red, anti-human IgG Fc biosensor loaded with the Ig2 domain hFc protein, dipped into clone 15 or SP2 media
T7 construct: immunoglobulin domain 2 alone; also called Murine MCAM domain 2 (Ig2)
T7 sequence (Fc fusion chain, looked up): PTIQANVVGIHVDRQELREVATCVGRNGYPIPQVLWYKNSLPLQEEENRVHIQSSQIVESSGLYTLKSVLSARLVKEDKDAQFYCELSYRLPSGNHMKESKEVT
Excerpt: as §1
(§3) For FIG. 10A-B, clones 15 and 17 were tested against the following protein samples (all have human IgG Fc tag): […]

[8] = target: T8, murine MCAM-Fc (extracellular domain of murine MCAM fused to human IgG) (mouse, UniProt Q8R2Y2 24-563); assay: ForteBio Octet Red, anti-human IgG Fc biosensor loaded with mouse MCAMhFc (5 ug/ml), dipped into clone 15 (5 ug/ml) or SP2 media
T8 construct: extracellular domain; Produced in CHO cells; also called mouse MCAM-Fc protein; full length mouse MCAMhFc protein; not shown: human IgG (Fc) part
T8 sequence (looked up): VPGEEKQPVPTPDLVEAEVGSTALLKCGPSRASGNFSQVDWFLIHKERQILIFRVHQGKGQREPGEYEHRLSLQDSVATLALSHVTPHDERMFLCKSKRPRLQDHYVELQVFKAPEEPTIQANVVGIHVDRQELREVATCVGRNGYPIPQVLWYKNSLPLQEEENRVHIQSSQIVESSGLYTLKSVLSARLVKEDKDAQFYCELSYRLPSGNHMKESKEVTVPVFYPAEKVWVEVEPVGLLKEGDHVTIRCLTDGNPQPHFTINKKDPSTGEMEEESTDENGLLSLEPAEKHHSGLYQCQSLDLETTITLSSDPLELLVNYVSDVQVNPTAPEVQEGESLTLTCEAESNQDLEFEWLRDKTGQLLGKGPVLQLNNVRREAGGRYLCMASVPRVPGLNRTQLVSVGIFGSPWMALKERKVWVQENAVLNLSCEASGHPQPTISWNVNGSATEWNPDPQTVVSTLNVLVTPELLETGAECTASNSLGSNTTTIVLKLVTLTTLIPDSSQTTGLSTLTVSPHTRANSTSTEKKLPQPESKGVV
Excerpt: as §1, §3

- binding result [1]: no binding (tested: 5-175 nM)
- binding result [2]: no binding (tested: 5-175 nM)
B1: MCAM Fc domain 1 alone (Example 9) (Fc fusion)
chain: PRVAGVPGEAEQPAPELVEVEVGSTALLKCGLSQSQGNLSHVDWFSVHKEKRTLIFRVRQGQGQSEPGEYEQRLSLQDRGATLALTQVTPQDERIFLCQGKRPRSQEYRIQ
notes: not shown: Fc tag; not described

- binding result [3]: no binding (tested: 5 ug/ml)
- binding result [4]: binds
- binding result [5]: binds
- binding result [6]: no binding
- binding result [7]: no binding (tested: 5 ug/ml)
- binding result [8]: binds
B2: clone 15 monoclonal antibody (rat anti-MCAM) (antibody, V domains shown)
VH: EVRLVESGGGLVQPGKSMKLSCVASGFKFSNYYMSWVRQAPAKGLEWVASISDGGGDTFCRDLVKGRFTISRDNAKSTLYLQMDSLRPEDTATYYCARRGAAMGGVMDAWGQGTSVTVSS
VL: DIVMTQSPSSLAVSAGETVSIHCKSSQSLLYSGTQKNYLAWFQQKPGQSPKLLIFWASTRQSGVPDRFIGRGSGTDFTLTISGVQAEDLAIYYCQQYYDTLTDTFGAGTKLELKR
notes: Rat monoclonal from a hybridoma; also called anti-MCAM antibody (clone 15)
